# Results: US20180346562A1 (ANAPTYSBIO, published 2018)
# T1: human IL-33 (human, UniProt O95760 112-270, limits assumed)
# T1 sequence (looked up): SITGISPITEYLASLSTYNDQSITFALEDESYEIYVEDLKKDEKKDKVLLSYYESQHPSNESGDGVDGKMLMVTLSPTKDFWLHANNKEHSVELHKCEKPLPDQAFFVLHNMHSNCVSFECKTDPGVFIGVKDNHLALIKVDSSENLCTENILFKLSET
# T2: cynomolgus IL-33 (cynomolgus, UniProt A0A2K5W3I1 112-269)
# T2 construct: also called cynoIL-33; cIL-33
# T2 sequence: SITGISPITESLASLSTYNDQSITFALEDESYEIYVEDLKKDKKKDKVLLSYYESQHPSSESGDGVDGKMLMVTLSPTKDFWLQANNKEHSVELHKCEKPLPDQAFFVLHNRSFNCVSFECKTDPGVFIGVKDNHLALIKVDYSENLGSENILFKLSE
# What was measured:
# human IL-33 [1] = biological target: T1, human IL-33; experiment: cell-based or functional assay
# cynomolgus IL-33 = biological target: T2, cynomolgus IL-33; experiment: KinExA solution-phase equilibrium titration: APE4909 at a fixed concentration incubated with cynomolgus IL-33 as titrant, free antibody captured on cIL-33-coated beads
# Procedure: (§1) The ability of the APE4909 antibody described in Example 2 to interact with IL-33 was analyzed biophysically using a KINEXA™ 3200 biosensor platform from Sapidyne Instruments (Boise, Id.). Binding experiments for human and cynomolgus IL-33 (cynolL-33) were conducted as described below and were run twice independently. Conditions for the first experiment are shown non-parenthetically, while conditions for the second experiment are provided parenthetically.
# Solid phase was prepared using azlactone-coated beads coated using a 50 μg/mL solution of histidine-tagged human IL-33. Binding experiments were performed in 1×PBS pH 7.4, 0.1% BSA. The APE4909 antibody at 10 pM (or 20 pM) final concentration was incubated with IL-33 at 200 pM to 3.4 fM (or 400 pM to 6.7 fM) final concentrations for 3 (or 4) days at 4° C. […] Free antibody was detected with an ALEXAFLUOR™ 647-(Life Technologies, Carlsbad, Calif.) labeled donkey anti-human antibody. […]
# Experiments were performed as described above for human IL-33, except that the APE4909 antibody at 20 pM and 100 pM final concentration was incubated with cIL-33 at 3 nM to 315 fM final concentrations for 24 hours at 4° C. […] Free antibody was detected with an ALEXAFLUOR™ 647-(Life Technologies, Carlsbad, Calif.) labeled donkey anti-human antibody. […]
# human IL-33 [2] = biological target: T1, human IL-33; experiment: KinExA, solution equilibrium, beads coated with histidine-tagged human IL-33
# Procedure: as §1
# Solid phase was prepared using azlactone-coated beads coated using a 50 μg/mL solution of histidine-tagged human IL-33. Binding experiments were performed in 1×PBS pH 7.4, 0.1% BSA. The APE4909 antibody at 10 pM (or 20 pM) final concentration was incubated with IL-33 at 200 pM to 3.4 fM (or 400 pM to 6.7 fM) final concentrations for 3 (or 4) days at 4° C. 5 mL (or 10 mL) of each mixture was applied to the beads coated with IL-33 at a rate of 0.25 mL/min for 1200 seconds (or 2400 seconds). Free antibody was detected with an ALEXAFLUOR™ 647-(Life Technologies, Carlsbad, Calif.) labeled donkey anti-human antibody. All data fit using standard KINEXA™ software.
Molecule,IC50 of inhibition of IL-33-mediated release of IL-5 in primary human basophils (human IL-33 [1]) [nM],Kd (cynomolgus IL-33) [nM],Kd (human IL-33 [2]) [nM],IC50 of inhibition of IL-33-mediated release of IL-9 from primary human basophils (human IL-33 [1]) [nM]
monomeric human ST2 protein (APE3906) (from UniProt Q01638 19-328) (receptor),20,,,
"APE4909 antibody (antibody, V domains shown, the claims treat these entries as variable regions; It was detected with an anti-human antibody; also called APE04909; APE4909.02 (lot suffix)) VH: QVQLMQSGAEVKKPGASVKVSCKASGYTFTSYWMHWVRQAPGQGLEWMGTIYPRNSNTDYNQKFKARVTMTRDTSTSTVYMELSSLRSEDTAVYYCARPLYYYLTSPPTLFWGQGTLVTVSS VL: DIQLTQSPSFLSASVGDRVTITCKASQDVGTAVAWYQQKPGKAPKLLIYWASTRHTGVPSRFSGSGSGTEFTLTISSLQPEDFATYYCQQAKTYPFTFGSGTKLEIKR",2.2,0.035,0.001,3
